We go through four molecules from US20180002415A1 (Chugai, published 2018).

The target of assay [1] is T1, C5 peptide 52-124 fused to GST-tag (human, UniProt P01031 52-124).
T1 construct: not shown: GST-tag (glutathione S-transferase); vector and linker not restated
The assay can be described thus: Western blot of E. coli lysates expressing GST-fused MG1-MG2-derived fragments; rhC5 (0.5 ug) as control lane. On the technique in general: A western blot detects proteins with antibodies after separation by electrophoresis.

In assay [2] the target is T2, C5 peptide 33-108 fused to GST-tag (human, UniProt P01031 33-108).
T2 construct: not shown: GST-tag (glutathione S-transferase); vector and linker not restated
Described as above.

The target in assay [3] is T3, C5 peptide 45-111 fused to GST-tag (human, UniProt P01031 45-111).
T3 construct: not shown: GST-tag (glutathione S-transferase); vector and linker not restated
The description is as above.

The target of assay [4] is T4, C5 peptide 45-124 fused to GST-tag (human, UniProt P01031 45-124).
T4 construct: not shown: GST-tag (glutathione S-transferase); vector and linker not restated
The description is as above.

Assay [5] concerns the target T5, C5 peptide 33-111 fused to GST-tag (human, UniProt P01031 33-111).
T5 construct: not shown: GST-tag (glutathione S-transferase); vector and linker not restated
The assay is described as above.

Assay [6] addresses T6, 321-500.
T6 construct: Expressed in E. coli
T6 GST fusion polypeptide: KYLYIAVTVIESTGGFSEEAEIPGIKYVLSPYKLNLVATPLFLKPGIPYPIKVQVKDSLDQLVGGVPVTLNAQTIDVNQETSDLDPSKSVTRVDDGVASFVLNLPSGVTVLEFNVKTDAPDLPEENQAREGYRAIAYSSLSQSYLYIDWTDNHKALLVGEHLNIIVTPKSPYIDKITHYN
Put plainly: Western blot of E. coli lysates expressing GST-fused C5 beta-chain fragments.
Description: (§1) Anti-C5 monoclonal antibodies (MAbs) were tested for binding to C5 β-chain-derived peptides in Western blot analysis. […] The E. coli samples were harvested after incubation with 1 mM Isopropyl β-D-1-thiogalactopyranoside (IPTG) for 5 hours at 37° C., and centrifuged at 20000×g for 1 min to obtain pellets.

Assay [7] concerns the target T7, 161-340.
T7 construct: Expressed in E. coli
T7 GST fusion polypeptide: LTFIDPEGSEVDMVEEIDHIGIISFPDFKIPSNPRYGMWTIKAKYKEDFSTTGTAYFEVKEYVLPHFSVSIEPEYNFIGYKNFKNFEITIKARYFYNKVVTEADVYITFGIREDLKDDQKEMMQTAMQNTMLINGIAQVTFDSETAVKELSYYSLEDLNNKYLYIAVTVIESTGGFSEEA
Described as above.
Description: as §1

Assay [8] has as its target T8, 481-660.
T8 construct: Expressed in E. coli
T8 GST fusion polypeptide: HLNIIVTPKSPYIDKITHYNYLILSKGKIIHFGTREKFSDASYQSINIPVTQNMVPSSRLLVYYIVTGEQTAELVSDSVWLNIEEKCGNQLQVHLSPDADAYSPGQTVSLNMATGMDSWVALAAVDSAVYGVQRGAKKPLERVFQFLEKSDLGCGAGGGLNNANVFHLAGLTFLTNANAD
Described as above.
Description: as §1

Assay [9] deals with T9, recombinant cynomolgus monkey C5 (cynomolgus monkey, UniProt P01031 20-1676 (human entry), limits assumed).
T9 construct: also called cynoC5
T9 chain: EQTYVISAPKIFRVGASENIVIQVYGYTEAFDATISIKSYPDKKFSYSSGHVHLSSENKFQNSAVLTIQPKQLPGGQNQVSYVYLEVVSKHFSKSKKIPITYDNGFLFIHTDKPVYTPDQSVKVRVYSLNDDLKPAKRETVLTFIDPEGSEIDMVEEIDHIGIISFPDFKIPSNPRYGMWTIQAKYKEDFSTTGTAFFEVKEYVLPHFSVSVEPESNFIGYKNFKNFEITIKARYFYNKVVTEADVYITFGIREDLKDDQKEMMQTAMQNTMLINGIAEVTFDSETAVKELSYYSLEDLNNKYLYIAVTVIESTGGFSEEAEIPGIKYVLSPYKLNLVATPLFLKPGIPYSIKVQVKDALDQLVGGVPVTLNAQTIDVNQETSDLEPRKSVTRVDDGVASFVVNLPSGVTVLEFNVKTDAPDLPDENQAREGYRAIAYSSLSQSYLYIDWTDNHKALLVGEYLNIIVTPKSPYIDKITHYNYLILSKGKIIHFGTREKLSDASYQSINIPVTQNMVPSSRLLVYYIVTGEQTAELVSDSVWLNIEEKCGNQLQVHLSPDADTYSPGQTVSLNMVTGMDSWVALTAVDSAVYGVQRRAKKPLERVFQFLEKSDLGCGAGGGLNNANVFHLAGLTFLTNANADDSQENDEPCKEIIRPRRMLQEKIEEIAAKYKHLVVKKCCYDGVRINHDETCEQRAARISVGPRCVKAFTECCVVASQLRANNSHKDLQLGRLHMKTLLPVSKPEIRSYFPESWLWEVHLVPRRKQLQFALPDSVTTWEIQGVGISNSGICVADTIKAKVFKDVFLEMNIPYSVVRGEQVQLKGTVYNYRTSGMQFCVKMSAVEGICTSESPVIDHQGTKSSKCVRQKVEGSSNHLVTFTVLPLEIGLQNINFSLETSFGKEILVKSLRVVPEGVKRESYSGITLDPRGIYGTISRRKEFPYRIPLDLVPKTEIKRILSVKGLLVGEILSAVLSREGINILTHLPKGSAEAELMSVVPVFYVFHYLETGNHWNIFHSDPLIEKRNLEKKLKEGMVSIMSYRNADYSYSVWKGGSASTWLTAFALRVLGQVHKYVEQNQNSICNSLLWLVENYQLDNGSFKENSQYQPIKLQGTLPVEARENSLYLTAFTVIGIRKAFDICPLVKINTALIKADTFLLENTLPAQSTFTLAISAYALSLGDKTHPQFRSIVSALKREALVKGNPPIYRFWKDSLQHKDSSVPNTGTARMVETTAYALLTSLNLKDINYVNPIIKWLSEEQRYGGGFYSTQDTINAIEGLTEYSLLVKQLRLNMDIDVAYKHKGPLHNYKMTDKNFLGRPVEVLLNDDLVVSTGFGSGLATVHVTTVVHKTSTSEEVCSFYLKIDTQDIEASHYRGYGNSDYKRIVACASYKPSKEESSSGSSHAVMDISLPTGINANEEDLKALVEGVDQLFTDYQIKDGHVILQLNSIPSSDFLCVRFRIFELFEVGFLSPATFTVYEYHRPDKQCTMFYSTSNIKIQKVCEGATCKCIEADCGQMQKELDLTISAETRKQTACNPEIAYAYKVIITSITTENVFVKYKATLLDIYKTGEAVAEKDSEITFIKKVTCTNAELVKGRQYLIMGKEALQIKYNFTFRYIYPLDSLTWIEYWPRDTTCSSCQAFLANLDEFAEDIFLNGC
The assay can be described thus: SPR (Biacore), 37C, pH 7.4, Ab captured on ProA/G.
Description: (§2) To observe the cross-reactivity of anti-C5 antibodies against human C5 (hC5) and cynomolgus monkey C5 (cynoC5), BIACORE® kinetics analysis was performed.

The target in assay [10] is T6, 321-500. Put plainly: summary drawing of the binding reactions to C5 beta-chain fragments.
Assay [11] concerns the target T1, C5 peptide 52-124 fused to GST-tag. The assay is described as above.
In assay [12] the target is T2, C5 peptide 33-108 fused to GST-tag. The description is as above.
Assay [13] deals with T7, 161-340. The assay is described as above.
Assay [14] has as its target T8, 481-660. The description is as above.
Assay [15] addresses T3, C5 peptide 45-111 fused to GST-tag. The assay is described as above.
The target of assay [16] is T4, C5 peptide 45-124 fused to GST-tag. Described as above.
Assay [17] deals with T5, C5 peptide 33-111 fused to GST-tag. The description is as above.
The target in assay [18] is T9, recombinant cynomolgus monkey C5. The assay can be described thus: SPR (Biacore), 37C, pH 7.4. (In general: SPR reads the build-up and loss of mass on a sensor chip optically.)
Description: as §2
The target is the same in assay [19]. Put plainly: SPR (Biacore), pH 7.4; KD on cynoC5 against KD on hC5.
Description: as §2
Assay [20] has as its target recombinant MG1-MG2 domain of human C5 β-chain (human, UniProt P01031 20-225). The assay can be described thus: SPR (BIACORE T200, 37 C, pH7.4): antibody captured by ProA/G, MG1-MG2 domain injected (20 and 40 nM per paragraph 378; concentration of the curves not printed on the sheet).
Description: ProA/G (Pierce) was immobilized onto a CM4 sensorchip using amine coupling kit (GE Healthcare) according to the recommended settings by GE Healthcare. Antibodies and analytes were diluted into the respective running buffers, ACES pH7.4 and pH5.8 (20 mM ACES, 150 mM NaCl, 1.2 mM CaCl₂, 0.05% Tween 20, 0.005% NaN₃). […] The surface was regenerated using 25 mM NaOH. Kinetic parameters at both pH conditions were determined by fitting the sensorgrams with 1:1 binding model using BIACORE® T200 Evaluation software, version 2.0 (GE Healthcare).
The MG1-MG2 domain was injected at concentrations of 20 nM and 40 nM.

T2 sequence (P01031 33-108): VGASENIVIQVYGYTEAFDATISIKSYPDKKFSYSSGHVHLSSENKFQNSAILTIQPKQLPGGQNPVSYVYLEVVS
T1 sequence (P01031 52-124): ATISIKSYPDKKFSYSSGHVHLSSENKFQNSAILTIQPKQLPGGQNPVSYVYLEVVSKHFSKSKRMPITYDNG
T3 sequence (P01031 45-111): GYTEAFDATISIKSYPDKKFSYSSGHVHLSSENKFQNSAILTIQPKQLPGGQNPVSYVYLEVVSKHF
T4 sequence (P01031 45-124): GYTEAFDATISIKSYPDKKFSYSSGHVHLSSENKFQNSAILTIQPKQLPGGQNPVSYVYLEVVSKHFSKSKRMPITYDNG
T5 sequence (P01031 33-111): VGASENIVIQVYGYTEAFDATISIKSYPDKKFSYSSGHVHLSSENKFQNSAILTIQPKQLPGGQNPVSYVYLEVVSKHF

B1: CFA0305 (antibody, V domains shown)
VH: QSLEESGGDLVKPGASLAVTCTASGFSSSSSYYMCWVRQAPGKGLEWIGCIYTGSGATYYASWAKGRFTISKTSSTTVTLQMTSLTVADTATYFCASDGGYVTPTHAMYLWGPGTLVTVSS
VL: DVVMTQTPASVSAAVGGTVTIKCQASQNIGSDLAWYQQKPGQPPRLLIYGASKLASGVSSRFSGSGSGKEFTLTISDLECADAVTYYCQCTFVGSSYGNAFGGGTEVVVK
notes: Chimeric, rabbit V regions; also called CFA0305-F760G4
The Kd is the concentration at which binding is half-saturated. Turning to B1, the binding result (in [1]; in assay [2]; in [3]; in assay [4]; in assay [5]; with 321-500 [6]) was “no binding” each time. Also, the binding result with 161-340 [7] and with 481-660 [8] was “no binding” in each case. In addition, the Kd in assay [9] came out at 55.4 nM.

B2: CFA0366 (antibody, V domains shown)
VH: QSLEESGGDLVKPGASLSLTCTAAGLDFSSSYYMCWVRQAPGKGLEWIACIYAGSSGIIYYANWAKGRFTISRPSSTTVTLQMTSLTAADTATYFCATYPTYGDGGHAFNLWGPGTLVTVSS
VL: AQVLTQTPSSVSAAVGGTVTINCQSSQSVYSSDYLSWYQQKPGQPPKLLIYEASKLASGVPPRFSGSGSGTQFTLTISGVQCDDAATYYCQGTYYSSGWYFAFGGGTEVVVK
notes: Chimeric, rabbit V regions; also called CFA0366-F760G4
As for B2, in assay [9], the dissociation constant Kd is 17.9 nM. The binding result (in the assay with 321-500 [10]; in assay [11]; in assay [12]; with 161-340 [13]; in the assay with 481-660 [14]; in assay [15]) was “no binding” each time. Besides, the binding result in [16] and in assay [17] was “no binding” throughout.

B3: CFA0672 (antibody, V domains shown)
VH: QSVEESGGRLVTPGTPLTLTCTASGFSLSGNAINWVRQAPGKGLEWIGCIYTGSDTTYYATWAKGRFTISKTSTTVDLKIASPTTEDTATYFCARGSGLWGPGTLVTVSS
VL: DVVMTQTPASVSAPVGGTVTIKCQASQNIYSLLAWYQQKPGQPPKLLIYHTSDLASGVPSRFRGSGSGTEFTLTISDLECADAATYYCQCTAYGSSDVGGTFGGGTTVVVE
notes: Chimeric, rabbit V regions; also called CFA0672-F760G4
Consider B3, for which the binding result (with 321-500 [6]; in the assay with 161-340 [7]; with 481-660 [8]; in assay [11]; in assay [12]; in assay [15]) was “no binding” each time. Further, the binding result in assay [16] and in [17] was “no binding” each time. Also, in [9], the Kd is 2.88 nM. In addition, the “fold weaker KD toward cynoC5 than toward hC5” value came out at 8 fold in assay [18] and 8 times in assay [19].

B4: eculizumab-F760G4 (antibody, human IgG4 S228P, kappa)
heavy: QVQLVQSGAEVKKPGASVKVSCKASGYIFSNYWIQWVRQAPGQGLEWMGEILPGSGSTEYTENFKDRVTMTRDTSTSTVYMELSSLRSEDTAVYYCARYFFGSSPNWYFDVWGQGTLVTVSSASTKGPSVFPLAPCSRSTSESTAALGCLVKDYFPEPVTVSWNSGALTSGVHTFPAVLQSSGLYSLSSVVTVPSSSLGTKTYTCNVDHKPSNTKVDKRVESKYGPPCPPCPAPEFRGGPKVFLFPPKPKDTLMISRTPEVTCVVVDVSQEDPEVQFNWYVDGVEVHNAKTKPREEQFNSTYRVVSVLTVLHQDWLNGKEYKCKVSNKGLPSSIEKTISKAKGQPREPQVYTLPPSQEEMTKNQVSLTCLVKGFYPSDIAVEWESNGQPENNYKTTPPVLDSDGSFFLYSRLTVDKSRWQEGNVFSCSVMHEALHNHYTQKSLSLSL
light: DIQMTQSPSSLSASVGDRVTITCGASENIYGALNWYQQKPGKAPKLLIYGATNLADGVPSRFSGSGSGTDFTLTISSLQPEDFATYYCQNVLNTPLTFGQGTKVEIKRTVAAPSVFIFPPSDEQLKSGTASVVCLLNNFYPREAKVQWKVDNALQSGNSQESVTEQDSKDSTYSLSSTLTLSKADYEKHKVYACEVTHQGLSSPVTKSFNRGEC
notes: EcuH VH fused to modified human IgG4 CH F760G4; EcuL VL fused to k0 light chain constant region
B4: in assay [20], the binding result is recorded as “no binding (tested: 40 nM (not printed on the sheet))”.
